Source: US20240150433A1, “ERT2 MUTANTS AND USES THEREOF” (Senti Biosciences, Inc., priority 2021, published 2024)
Positions count from the first letter of the chain named. Names may count otherwise.

B1: wild-type ERT2: ER-LBD with G400V/M543A/L544A/V595A (SEQ ID NO: 3), benchmark construct ZF10-1_p65_ERT2 wild-type (protein)
chain: SAGDMRAANLWPSPLMIKRSKKNSLALSLTADQMVSALLDAEPPILYSEYDPTRPFSEASMMGLLTNLADRELVHMINWAKRVPGFVDLTLHDQVHLLECAWLEILMIGLVWRSMEHPVKLLFAPNLLLDRNQGKCVEGMVEIFDMLLATSSRFRMMNLQGEEFVCLKSIILLNSGVYTFLSSTLKSLEEKDHIHRVLDKITDTLIHLMAKAGLTLQQQHQRLAQLLLILSHIRHMSNKGMEHLYSMKCKNVVPLYDLLLEAADAHRLHAPTSRGGASVEETDQSHLATAGSTSSHSLQKYYITGEAEGFPATA
B2: SB06136: ZF10-1_p65_ERT2 variant L384M/L391V/N413D/M421L/S463P/H524L (protein)
chain: B1 chain with L103M, L110V, N132D, M140L, S182P, H243L
B3: SB06142: ZF10-1_p65_ERT2 variant L354I/L391V/N413D/M421L/S463P/M517A/H524L (protein)
chain: B1 chain with L73I, L110V, N132D, M140L, S182P, M236A, H243L
B4: SB06145: ZF10-1_p65_ERT2 variant L409V/N413D/Q414E/M421L/S463P/H524L (protein)
chain: B1 chain with L128V, N132D, Q133E, M140L, S182P, H243L

Tests used:
[1] = following a typical clinical dose of tamoxifen; cited from earlier work
U87MG:1066 cells = experiment: ERT2 mutant validation in U87MG with mCherry reporter; format: cell-based; settings: validation screen versus wild-type ERT2
Procedure: About 16 hours before transduction 100k U87MG:1066 cells were seeded into 16 wells in 12 well plate format. During transduction, cells in each well were transduced with 100k pg of virus of ERT2 variant constructs. After transduction, cells were split in to 50k cells per well in a 24 well plate format, and treated with drug-free media or a range of endoxifen or 4-OHT drug conditions. About two days after treatment of cells with endoxifen or 4-OHT, cells were collected and mCherry reporter expression was quantified by flow cytometry.
Screening of the ERT2 mutant library identified a subset of ERT2 variants that were sensitive to endoxifen at 1 nM. Among this subset, 15 variants (Table 19) were validated in U87MG cells for their ability to activate an mCherry reporter (SB01066; FIG. 14B) at a range of concentrations of 0 pM, 10 pM, 50 pM, 100 pM, and 1 nM of endoxifen (FIG. 15A) and 4-OHT (FIG. 15B). Expression of mCherry was quantified about 24 hours after treatment with endoxifen or 4-OHT.
Select ERT2 variants (Table 20) from the previous screens were further tested for sensitivity to endoxifen and 4-OHT, compared to wild-type ERT2. […] Fold activation was calculated by gMFI mCherry levels of each test condition divided by gMFI mCherry levels of U87MG cells transduced with the reporter (SB01066).

NK cells = experiment: Validation of ERT2 mutants with mCherry reporter in NK cells; format: cell-based; settings: primary NK cells, mCherry by flow cytometry
Procedure: After 10 days of feeder cell activation, NK cells were co-transduced with ERT2 mutant virus and reporter SB01066 virus (Experimental Set-up 1). On Day 2 after transduction, transduced NK cells were treated with endoxifen or 4-OHT at a range of concentrations of 0 nM, 0.01 nM, 0.1 nM, 1 nM, and 10 nM. On Day 4, cells were checked for mCherry expression by flow cytometry.

Molecule	average peak plasma concentration [1]	4-OHT concentration at which mCherry expression is activated (U87MG:1066 cells)	endoxifen concentration at which mCherry expression is activated (U87MG:1066 cells)	4-OHT concentration at which variant was sensitive (NK cells) [nM]	endoxifen concentration at which variant was sensitive (NK cells) [nM]
CC/C(=C(\c1ccccc1)c1ccc(OCCN(C)C)cc1)c1ccccc1 [tamoxifen]	approximately 40 ng/mL				
B1		about 25 nM	about 25 nM		
B2				0.1	0.1
B3				0.1	0.1
B4				0.1	0.1
